Assays:
[1] = Liver Tg content; assay type: in vivo, mice; conditions: SPX 29 µg/kg/day ten days
Experimental: Liver tissue (50 mg) was homogenized in a 5% solution of 500 µL Triton X-100 in PBS. The homogenate was incubated at 80–100 °C for 5 min and centrifuged at 10,000× g for 10 min. The Tg levels were measured in the supernatants using a commercial kit (Wiener Lab., Rosario, Argentina).

[2] = system: beige precursors (PDGFRα+; EBF2+); assay: Beige precursors (PDGFRα+; EBF2+) in the SVF by flow cytometry; assay type: in vivo, mice; conditions: SPX for 3 days prior to cold exposure; n = 4, t-test
Experimental: Fresh EAT pads were dissected, weighed, and digested with collagenase, as previously reported. Briefly, fat tissue was minced and digested using 1 mg/mL of the collagenase solution in DMEM (at 37 °C for 40–60 min). After centrifugation (1000 rpm for 15 min), the SVF pellets were filtered (in a 50-µm-mesh nylon cloth) and washed with DMEM (x3). SVF cells were then resuspended in DMEM supplemented with 10% (v/v) FBS, HEPES ([…]), 100 IU/mL of penicillin, and 100 µg/mL of streptomycin (basal medium) and reserved for the flow cytometry protocol.
The SVF was prepared as reported above and counted and filtered through a 70-μM cell strainer. To block unspecific binding, the cells were resuspended in 10% inactivated FBS in FACS buffer (1% BSA in PBS) for 10 min. Then, the cells were incubated with the surface antibody anti-Pdgfrα (CD140a)-PE/Cy7 (1:200, BioLegend, San Diego, CA, USA) and washed twice with FACS buffer, followed by centrifugation (300× g, 5 min). Fixation was performed with 2% paraformaldehyde in PBS for 20 min at room temperature. After washing, the cells were subjected to permeabilization with 0.1 % Triton X100 in PBS for 15 min at room temperature. […] The samples were analyzed on a FACS Calibur flow cytometer (BD bioscience, Franklin Lakes, NJ, USA). […]

B1: Spexin (peptide, UniProt Q9BT56 27-116, looked up)
Spexin: APQRLLERRNWTPQAMLYLKGAQGRRFISDQSRRKDLSDRPLPERRSPNPQLLTIPEAATILLASLQKSPEDEEKNFDQTRFLEDSLLNW
modifications: Spexin
notes: novel adipokine, a peptide of 14 amino acids of the galanin family; purchased from Tocris
With B1 the “liver Tg content, SPX-C vs. CTR-C” value ([1]; cold (4 °C), C × S p < 0.001, p < 0.001 vs. CTR-C) was “CTR-C mice had higher Tg levels than CTR (p < 0.01) and SPX-C (p < 0.001) mice”, the “liver Tg content, SPX-C vs. SPX” value ([1]; cold vs. RT) was “lower Tg levels than SPX mice” and the “abundance (%) of beige precursors in the SVF of EAT” value [2] was “no changes were observed in either of the two AT depots studied”. For the same molecule, the “abundance (%) of beige precursors in the SVF of IAT” value [2] was “no changes were observed in either of the two AT depots studied”.
